Broadly, the Ki is the dissociation constant of the complex between target and ligand, obtained from inhibition or displacement. Low values mean higher affinity, high ones lower affinity. The Kd is the constant that tells how readily two partners part at equilibrium. The low end stands for higher affinity, the high end for lower affinity.

Ki and Kd data for 15 molecules are collected here from patent publication US10919937 (Bicycle, dated 2021).

Several values for one entry are separate records, joined by “and”; a condition that tells them apart may be missing. Identical values can stand only once. *1 amine or outer side, *2 acyl side, *3 side chain or, on linkers, in order; H or OH if unused. Bridges are numbered along the chain shown (N, C = ends). Primed or numbered codes have the meaning given here. Where no end group is shown, it is not given here. [ ]: non-standard residue; d: D form. MSR‑C = 1-[4-[4-[4,6-bis[4-[1-(2-chloroacetyl)-4-piperidyl]piperazin-1-yl]-1,3,5-triazin-2-yl]piperazin-1-yl]-1-piperidyl]-2-chloro-ethanone, O=C(C[*:1])N1CCC(N2CCN(c3nc(N4CCN(C5CCN(C(=O)C[*:2])CC5)CC4)nc(N4CCN(C5CCN(C(=O)C[*:3])CC5)CC4)n3)CC2)CC1; MSR‑F = 1-[4-[4-[4,6-bis[4-[4-(2-chloroacetyl)piperazin-1-yl]phenyl]-1,3,5-triazin-2-yl]phenyl]piperazin-1-yl]-2-chloro-ethanone, O=C(C[*:1])N1CCN(c2ccc(-c3nc(-c4ccc(N5CCN(C(=O)C[*:2])CC5)cc4)nc(-c4ccc(N5CCN(C(=O)C[*:3])CC5)cc4)n3)cc2)CC1; MSR‑B = molecular scaffold reagent B, 2,4,6-tris[4-(bromomethyl)phenyl]-1,3,5-triazine, c1cc(-c2nc(-c3ccc(C[*:2])cc3)nc(-c3ccc(C[*:3])cc3)n2)ccc1C[*:1]; MSR‑B(3) = molecular scaffold reagent 2,4,6-tris[4-(bromomethyl)phenyl]-1,3,5-triazine, c1cc(-c2nc(-c3ccc(C[*:2])cc3)nc(-c3ccc(C[*:3])cc3)n2)ccc1C[*:1]; MSR‑G = scaffold reagent with three vinyl sulfonyl Michael acceptors (C9H15N3O6S3), O=S(=O)(CC[*:1])N1CN(S(=O)(=O)CC[*:2])CN(S(=O)(=O)CC[*:3])C1; MSR‑H = 1-[4-(bromomethyl)phenyl]-N,N-bis[[4-(bromomethyl)phenyl]methyl]methanamine, c1cc(C[*:1])ccc1CN(Cc1ccc(C[*:2])cc1)Cc1ccc(C[*:3])cc1; MSR‑B″ = 2,4,6-tris[4-(bromomethyl)phenyl]-1,3,5-triazine, c1cc(-c2nc(-c3ccc(C[*:2])cc3)nc(-c3ccc(C[*:3])cc3)n2)ccc1C[*:1]; MSR‑E = scaffold reagent with three bromomethyl groups (C27H24Br3N3O3); 1Nal = N[C@@H](Cc1cccc2ccccc12)C(=O)O; Tle = CC(C)(C)[C@H](N)C(=O)O; MSR‑D = not defined here

For test [1], the target named is T1, MT1-MMP hemopexin domain (UniProt P50281 319-511).
T1 construct: domain: hemopexin domain; also called MMP14; membrane type 1 metalloprotease
The test is described as follows: MT1-MMP direct binding fluorescence polarization (as titled), n = 2. The method, then:
Example 5: Dissociation Rate Constant Determination of Bicyclic Binders to MT1-MMP Direct Binding Fluorescence Polarization (Anisotropy) Assays Direct Binding Fluorescence Polarization or Anisotropy Assays are performed by titrating a constant concentration of fluorescent tracer (here, the fluoresceinated bicyclic peptide to be studied) with its binding partner (here, the MT1-MMP hemopexin domain). As the concentration of binding partner increases during the titration, the polarization signal changes in proportion to the fraction of bound and unbound material. This allows determination of […] (K_d) quantitatively. Assay data can be fit using standard ligand binding equations.
Typically, concentrations of the tracer are ideally well below the K_d of the tracer:titrant pair, and concentrations chosen are usually at ~1 nM or less. The titrant (binding partner) concentration is varied from 0.1 nM up to typically 5 μM. The range is chosen such that the maximum change in fluorescent polarization can be observed. Buffers employed are phosphate buffered saline in the presence of 0.01% Tween. Experiments were run in black 384 well low-bind/low volume plates (Corning 3820), and the fluorescent polarization signal was measured using a BMG Pherastar FS plate reader. Fluorescent tracers referred to in the text are bicyclic peptides that have been fluoresceinated using 5,6-carboxyfluorescein. Fluoresceination may be performed on the N-terminal amino group of the peptide, which is separated from the bicycle core sequence by a sarcosine spacer (usually Sar5). This can be done during Fmoc solid phase synthesis or post-synthetically (after cyclization with the molecular scaffold reagent and purification) if the N-terminal amino group is unique to the peptide. Fluoresceination can also be performed on the C-terminus, usually on a Lysine introduced as the first C-terminal residue, which is then separated from the bicycle core sequence by a sarcosine spacer (usually Sar6). Thus, N-terminal tracers can have a molecular format described as Fluo-Gly-Sar5-A(Bicycle-CoreSequence), and (BicycleCoreSequence)-A-Sar6-K (Fluo) for a C-terminally fluoresceinated construct.
In general terms: In fluorescence polarisation assays a small probe gives low polarisation when free and higher when bound to something large.

Test [2] has as its target human carbonic anhydrase IX (human, UniProt Q16790 38-414). Kind of test: competition fluorescence polarization, tracer SEQ ID NO: 11, n = 2.
In test [3] the target is T2, EphA2 (UniProt P29317 25-534, limits assumed, biotinylated with EZ-Link Sulfo-NHS-LC-Biotin (sites not given)).
T2 construct: Fc-tagged proteins are also mentioned; also called ephrin type-A receptor 2; biotinylated EphA2
T2 sequence (P29317 25-534 limits assumed): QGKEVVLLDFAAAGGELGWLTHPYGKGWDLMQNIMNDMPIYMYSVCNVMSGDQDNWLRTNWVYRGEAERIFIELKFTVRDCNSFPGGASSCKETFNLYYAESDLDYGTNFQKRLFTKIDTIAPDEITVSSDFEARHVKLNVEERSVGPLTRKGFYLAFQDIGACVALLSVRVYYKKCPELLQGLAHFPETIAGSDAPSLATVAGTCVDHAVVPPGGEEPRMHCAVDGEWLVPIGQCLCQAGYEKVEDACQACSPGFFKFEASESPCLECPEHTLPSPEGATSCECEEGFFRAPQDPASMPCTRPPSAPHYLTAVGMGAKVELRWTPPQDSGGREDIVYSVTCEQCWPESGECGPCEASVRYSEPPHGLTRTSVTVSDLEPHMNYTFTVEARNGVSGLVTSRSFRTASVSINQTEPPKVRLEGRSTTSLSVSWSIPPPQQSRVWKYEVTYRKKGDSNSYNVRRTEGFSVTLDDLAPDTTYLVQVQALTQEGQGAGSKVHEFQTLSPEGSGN
The test is described as follows: SPR (Biacore), biotinylated EphA2 on streptavidin, peptide as analyte, n = 2. The method, then:
SPR Measurements: Non-Fc fusion proteins were biotinylated with EZ-Link™ Sulfo-NHS-LC-Biotin for 1 hour in 4 mM sodium acetate, 100 mM NaCl, pH 5.4 with a 3× molar excess of biotin over protein. The degree of labelling was determined using a Fluorescence Biotin Quantification-Kit (Thermo) after dialysis of the reaction mixture into PBS. For analysis of peptide binding, a Biacore T200 10 instrument was used utilising a XanTec CMD500D chip. Streptavidin was immobilized on the chip using standard amine-coupling chemistry at 25° C. with HBS—N (10 mM HEPES, 0.15 M NaCl, pH 7.4) as the running buffer. Briefly, the carboxymethyl dextran surface was activated with a 7 min injection of a 1:1 ratio of 0.4 M 1-ethyl-3-(3-dimethylaminopropyl) carbodiimide hydrochloride (EDC)/0.1 M N-hydroxy succinimide (NHS) at a flow rate of 10 μl/min. For capture of streptavidin, the protein was diluted to 0.2 mg/ml in 10 mM sodium acetate (pH 4.5) and captured by injecting 120 μl onto the activated chip surface. Residual activated groups were blocked with a 7 min injection of 1 M ethanolamine (pH 8.5):HBS—N (1:1). Buffer was changed to PBS/0.05% Tween 20 and biotinylated EphA2 was captured to a level of 500-1500 RU using a dilution of protein to 0.2 μM in buffer. A dilution series of the peptides was prepared in this buffer with a final DMSO concentration of 0.5% with a top peptide concentration was 50 or 100 nM and 6 further 2-fold dilutions. The SPR analysis was run at 25° C. at a flow rate of […] with 60 seconds association and 900-1200 seconds dissociation. Data were corrected for DMSO excluded volume effects. All data were double-referenced for blank injections and reference surface using standard processing procedures and data processing and kinetic fitting were performed using Scrubber software, version 2.0c (BioLogic Software).
Data were fitted using simple 1:1 binding model allowing for mass transport effects where appropriate for binding of Bicycle Drug Conjugates, a Biacore 3000 instrument was used. For biotinylated proteins immobilisation levels were 1500 RU and the top concentration was 100 nM. Otherwise the method was the same as described above using either the CMD500D or a CM5 chip (GE Healthcare).
For orientation: SPR reads the build-up and loss of mass on a sensor chip optically.

B1: Compound I-90 (peptide)
peptide: AC[dA]NE[1Nal][dA]CEDFYD[Tle]C
modifications: linker 2-8-15 via MSR‑B
notes: also called 1-90
On to B1, for which the Ki in test [1] was under 500 nM.

B2: Compound I-98 (peptide)
peptide: CTECWVDGWVPC
modifications: linker 1-4-12 via MSR‑B(3) (inferred)
notes: also called 1-98
As for B2, the Ki in test [2] is under 500 nM.

B3: Compound I-108 (peptide)
peptide: CTEYWVDGWVPC
modifications: also: cyclised via a tyrosine linkage to an unnamed scaffold, places not given here
notes: also called 1-108
Molecule B3 returned a Ki in test [2] of under 500 nM.

B4: Compound I-93 (peptide)
peptide: AC[dA]NE[1Nal][dA]CEDFYD[Tle]C
modifications: linker 2-8-15 via MSR‑E
notes: also called 1-93
Take B4: the Ki in test [1] was under 500 nM.

B5: Compound I-100 (peptide)
peptide: ADVHCPWGPFWCPVNRPGCA
modifications: linker 5-12-19 via MSR‑B″
Molecule B5 came in with a Kd in test [3] of under 500 nM.

B6: Compound I-109 (peptide)
peptide: YTECWVDGWVPY
modifications: also: cyclised via a tyrosine linkage to an unnamed scaffold, places not given here
notes: also called 1-109
For B6, the Ki in test [2] was ≥ 500 nM and < 1000 nM.

B7: Compound I-94 (peptide)
peptide: AC[dA]NE[1Nal][dA]CEDFYD[Tle]C
modifications: linker 2-8-15 via MSR‑F
notes: also called 1-94
Turning to B7, the Ki in test [1] is under 500 nM.

B8: Compound I-105 (peptide)
peptide: ADVHCPWGPFWCPVNRPGCA
modifications: linker 5-12-19 via MSR‑G; not fully specified
In turn, B8 registered a dissociation constant Kd in test [3] of under 500 nM.

B9: Compound I-104 (peptide)
peptide: ADVHCPWGPFWCPVNRPGCA
modifications: linker 5-12-19 via MSR‑F; not fully specified
Molecule B9 yielded a Kd in test [3] of under 500 nM.

B10: Compound I-95 (peptide)
peptide: AC[dA]NE[1Nal][dA]CEDFYD[Tle]C
modifications: linker 2-8-15 via MSR‑G
notes: also called 1-95
As for B10, the Ki in test [1] is ≥ 500 nM and < 1000 nM.

B11: Compound I-92 (peptide)
peptide: AC[dA]NE[1Nal][dA]CEDFYD[Tle]C
modifications: linker 2-8-15 via MSR‑D; not fully specified; reading uncertain
notes: also called 1-92
Turning to B11, the Ki in test [1] was ≥ 500 nM and < 1000 nM.

B12: Compound I-91 (peptide)
peptide: AC[dA]NE[1Nal][dA]CEDFYD[Tle]C
modifications: linker 2-8-15 via MSR‑C
notes: also called 1-91
In turn, B12 yielded a Ki in test [1] of under 500 nM.

B13: Compound I-101 (peptide)
peptide: ADVHCPWGPFWCPVNRPGCA
modifications: linker 5-12-19 via MSR‑C; also: a note names MSR-B as the scaffold
Turning to B13, the Kd in test [3] was under 500 nM.

B14: Compound I-106 (peptide)
peptide: ADVHCPWGPFWCPVNRPGCA
modifications: linker 5-12-19 via MSR‑H; not fully specified
B14: the Kd in test [3] was under 500 nM.

B15: Compound I-96 (peptide)
peptide: AC[dA]NE[1Nal][dA]CEDFYD[Tle]C
modifications: linker 2-8-15 via MSR‑H
notes: also called 1-96
As to B15, the Ki in test [1] was under 500 nM.
